Test results taken from CN114057887A.
Where two headings read alike, the source gives them in different places.

How the values were obtained:
[1] = biological target: RBD-Fc (义翘神州，40592-V05H) (SARS-CoV-2) (UniProt P0DTC2)
[2] = biological target: RBD-Fc (义翘神州，40592-V05H) (SARS-CoV-2) (UniProt P0DTC2); remark: listed apart in the source

“hACE2-Fc融合蛋白 (人ACE2胞外区(ECD)与人IgG1的Fc片段的融合蛋白) (Fc fusion)” was tested, and the IC50 [1] was 7.6 nM and the IC50 [2] was 5.02 nM.
